This assay has as its target T1, BMP-2 (Homo sapiens, UniProt P12643).
T1 sequence (P12643 283-396): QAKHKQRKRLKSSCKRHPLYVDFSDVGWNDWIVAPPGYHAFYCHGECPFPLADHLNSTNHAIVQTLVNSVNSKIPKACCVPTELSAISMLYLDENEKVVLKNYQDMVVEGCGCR
Nature of the assay: Inhibition of BMP-2 effects by SPP-24. The following applies: 50-fold (w/w) excess of SPP-24. The text has this: Lyophilized SPP-24 is ground into a fine powder and combined with DBM. […] However, concentrations of growth factors in DBM vary by lot and preparation methodology. For example, Wildemann et al. reports BMP-2 concentrations of 0.004 g BMP-2 per gram total protein. Wildemann et al. (2007) Quantification of various growth factors in different demineralized bone matrix preparations. J. of Biomed. Mat. Res. Part A. 81A(2): 437-442. Thus, SPP to DBM ratios range from about 1:10 to about 2:1, for example, about 1:10, about 1:8, about 1:7, about 1:6, about 1:5, about 1:4, about 1:3, about 1:2, about 1:1, and about 2:1.

Results on one molecule are retold here after patent US20110130836A1, “Compositions and Methods for Use of Scar Tissue in Repair of Weight Bearing Surfaces” (LANX, INC., priority 2008, published 2011).

B1: secreted phosphoprotein 24 (protein, UniProt Q13103 30-211, looked up)
Secreted phosphoprotein 24: FPVYDYDPSSLRDALSASVVKVNSQSLSPYLFRAFRSSLKRVEVLDENNLVMNLEFSIRETTCRKDSGEDPATCAFQRDYYVSTAVCRSTVKVSAQQVQGVHARCSWSSSTSESYSSEEMIFGDMLGSHKWRNNYLFGLISDESISEQFYDRSLGIMRRVLPPGNRRYPNHRHRARINTDFE
notes: BMP-2 antagonist
B1: the “effects of BMP-2” value was “completely ablates”.
